Reference: article PMC2958096
Where two headings read alike, the source gives them in different places.

What was measured:
SUD-C [1] = biological target: T1, SUD-C (SARS-CoV, UniProt P0C6U8 1473-1538); experiment: NMR chemical shift perturbation
SUD-MC [2] = biological target: T2, SUD-MC (SARS-CoV, UniProt P0C6U8 1345-1538); experiment: NMR chemical shift perturbation
SUD-M [3] = biological target: T3, SUD-M (SARS-CoV, UniProt P0C6U8 1345-1469)
SUD-MC [4] = biological target: T2, SUD-MC; experiment: NMR chemical shift perturbation; remark: listed apart in the source
SUD-C [5] = biological target: T1, SUD-C; experiment: EMSA
SUD-MC [6] = biological target: T2, SUD-MC; experiment: EMSA
SUD-M [7] = biological target: T3, SUD-M; experiment: EMSA
SUD-M [8] = biological target: T3, SUD-M; experiment: EMSA; remark: listed apart in the source
SUD-M [9] = biological target: T3, SUD-M; experiment: NMR chemical shift perturbation
SUD-MC [10] = biological target: T2, SUD-MC; experiment: NMR chemical shift perturbation; remark: listed apart in the source
SUD-M [11] = biological target: T3, SUD-M; experiment: EMSA; remark: listed apart in the source
SUD-MC [12] = biological target: T2, SUD-MC; experiment: EMSA; remark: listed apart in the source
SUD-C [13] = biological target: T1, SUD-C; experiment: NMR chemical shift perturbation; remark: listed apart in the source
SUD-MC [14] = biological target: T2, SUD-MC; experiment: EMSA; remark: listed apart in the source

AAAAAAAAAA (ssRNA) [A10]
binding result (SUD-C [1]): binds | binding result (SUD-MC [2]): binds

CUAAACGAAC (ssRNA) [TRS(+)]
binding result (SUD-M [3]): no binding | binding result (SUD-MC [4]): binds

GGGAGGGAGGGAGGGAGGGA (ssRNA) [(GGGA)5]
binding result (SUD-C [5]): no binding | binding result (SUD-MC [6]): binds | binding result (SUD-M [7]): binds

GGGAGGGA (ssRNA)
binding result (SUD-M [8]): binds

GGAGGAGGAGGA (ssRNA) [(GGA)4]
binding result (SUD-M [9]): binds | binding result (SUD-MC [10]): binds

ACUGACUGACUGACUGACUG (ssRNA) [(ACUG)5]
binding result (SUD-C [5]): no binding | binding result (SUD-M [11]): binds | binding result (SUD-MC [12]): no binding

GGGGGGGGGG (ssRNA) [G10]
binding result (SUD-C [13]): binds

GUUCGUUUAG (ssRNA) [TRS(-)]
binding result (SUD-M [3]): no binding

GGGAGGGAGG (ssRNA)
binding result (SUD-MC [14]): binds | binding result (SUD-M [7]): binds
